# Values quoted from earlier work as cited in article PMC3076733.
# Molecular target: Obscurin Rho-GEF (Homo sapiens) (UniProt Q5VST9)
# UniProt Q5VST9, sequence (Q5VST9 5700-5884): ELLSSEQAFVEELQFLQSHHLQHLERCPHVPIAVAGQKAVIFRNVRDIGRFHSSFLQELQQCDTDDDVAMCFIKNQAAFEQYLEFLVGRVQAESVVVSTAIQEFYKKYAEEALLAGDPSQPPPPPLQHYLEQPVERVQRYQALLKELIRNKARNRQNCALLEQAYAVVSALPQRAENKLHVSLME
substance,measurement,value
RanBP9 (from UniProt Q96S59),Kd,2000 nM
